Measurements reported in patent publication US20220033483A1 (GUAGNDONG FEIPENG BIOLOGICAL, published 2022).
Where two headings read alike, the source gives them in different places.

B1: Anti-cTnI 7B9 monoclonal antibody (recombinant, Sample 1) (antibody, mouse IgG1, kappa, V domains shown)
VH: QVQLQQSGTELAKPGASVKFSCKASDYTFSTYWMYWIKQRPGQGLEWIGYLNPSSGHTEYNQRFKDKATLTADKSSSTAYMQLNSLTSEDSAVYYCARKYFGPFAMDYWGQGTSVTVSS
VL: EIFLTQSPAIMSASPGEKVTMTCSASTTVSYAHWYQQKSGTSPKRWLYDSSKIASGIPVRFSGSGSGTSYSLTISSMEAEDAATYYCQNWSTQPYTFGGGTKLEIKR
notes: Recombinant mouse antibody expressed in CHO cells; also called WT; Anti-cTnI 7B9 antibody
B2: Mutation 1 (antibody, V domains shown)
VH: QVQLQQSGTELAKPGASVKFSCKASGYTFSTYWMYWIKQRPGQGLEWIGYLNPSSGHTDYNQRFKDKATLTADKSSSTAYMQLNSLTSEDSAVYYCARKYFGPFGMDYWGQGTSVTVSS
VL: EIFLTQSPAIMSASPGEKVTMTCSASTTVSYVHWYQQKSGTSPKRWLYDTSKIASGIPVRFSGSGSGTSYSLTISSMEAEDAATYYCQQWSTQPYTFGGGTKLEIKR
notes: other CDR sites as WT
B3: Mutation 2 (antibody, V domains shown)
VH: QVQLQQSGTELAKPGASVKFSCKASLYTFSTYWMYWIKQRPGQGLEWIGYLNPSSGHTEYNQRFKDKATLTADKSSSTAYMQLNSLTSEDSAVYYCARKYFGPFIMDYWGQGTSVTVSS
VL: EIFLTQSPAIMSASPGEKVTMTCSASTTVSYAHWYQQKSGTSPKRWLYDTSKIASGIPVRFSGSGSGTSYSLTISSMEAEDAATYYCQVWSTQPYTFGGGTKLEIKR
notes: other CDR sites as WT
B4: Mutation 3 (antibody, V domains shown)
VH: QVQLQQSGTELAKPGASVKFSCKASIYTFSTYWMYWIKQRPGQGLEWIGYLNPSSGHTGYNQRFKDKATLTADKSSSTAYMQLNSLTSEDSAVYYCARKYFGPFVMDYWGQGTSVTVSS
VL: EIFLTQSPAIMSASPGEKVTMTCSASTTVSYIHWYQQKSGTSPKRWLYDTSKIASGIPVRFSGSGSGTSYSLTISSMEAEDAATYYCQRWSTQPYTFGGGTKLEIKR
notes: other CDR sites as WT
B5: Mutation 5 (antibody, V domains shown)
VH: QVQLQQSGTELAKPGASVKFSCKASWYTFSTYWMYWIKQRPGQGLEWIGYLNPSSGHTVYNQRFKDKATLTADKSSSTAYMQLNSLTSEDSAVYYCARKYFGPFSMDYWGQGTSVTVSS
VL: EIFLTQSPAIMSASPGEKVTMTCSASTTVSYSHWYQQKSGTSPKRWLYDYSKIASGIPVRFSGSGSGTSYSLTISSMEAEDAATYYCQEWSTQPYTFGGGTKLEIKR
notes: other CDR sites as WT

Assays:
[1] = molecular target: T1, cTnI quality control product recombinant protein (human, UniProt P19429 1-210, limits assumed); test: AMC biosensor, antibody on sensor
T1 construct: the assay paragraphs only say cTnI; also called cardiac troponin I; cTnI antigen
T1 sequence (P19429 whole entry): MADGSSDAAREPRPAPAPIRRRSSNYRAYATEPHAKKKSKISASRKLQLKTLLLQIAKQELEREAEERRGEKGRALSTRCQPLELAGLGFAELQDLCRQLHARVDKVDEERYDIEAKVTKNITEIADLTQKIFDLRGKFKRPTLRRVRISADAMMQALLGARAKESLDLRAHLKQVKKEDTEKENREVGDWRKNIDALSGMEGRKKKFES
Method: (§1) Operating process: it is equilibrated in Buffer 1 (PBST) for 60 s, the antibody is immobilized in an antibody solution for 300 s, incubated in Buffer 2 (PBST) for 180 s, bound in antigen solution for 420 s, dissociated in the Buffer 2 for 1200 s, 10 mM of GLY solution with pH 1.69 and Buffer 3 are used for sensor regeneration, and data is output.

[2] = molecular target: T1, cTnI quality control product …; test: AMC biosensor, antibody on sensor; remark: listed apart in the source
Method: as §1

[3] = molecular target: T1, cTnI quality control product …; test: capture ELISA, antibody 1.372 ng/ml, cTnI 0.15 ug/ml
Method: (§2) After mutation, the antibody activity is detected, 1 μg/ml of goat anti-mouse IgG is diluted with coating solution to coat a microwell plate, 100 μL per well, and overnight at 4 DEG C.; on the next day, it is washed twice with washing solution, and patted dry; blocking solution (20% BSA+80% PBS) is added, 120 μL per well, 37 DEG C., and 1 h, and patted dry; a diluted cTnI monoclonal antibody is added, 100 μL/well, 37 DEG C., and 60 min; liquid in the plate is shaken off, patted dry, and […] of mouse negative blood is added for blocking, 120 μl per well, 37 DEG C., 1 h; liquid in the plate is shaken off, patted dry, a diluted cTnI antigen (0.15 μg/ml) is added, 100 μL per well, 37 DEG C., and 40 min; it is washed for 5 times with the washing solution, and patted dry; another strain of the cTnI monoclonal antibody (1:5K) labeled with HRP is added, 100 μL per well, 37 DEG C., and 30 min; color developing solution A (50 μL/well) is added, color developing solution B (50 μL/well) is added, 10 min; stop solution is added, 50 μL/well; and a OD value is read at 450 nm (refer to 630 nm) on a microplate reader.

[4] = molecular target: T1, cTnI quality control product …; test: capture ELISA, antibody 4.115 ng/ml, cTnI 0.15 ug/ml
Method: as §2

[5] = molecular target: T1, cTnI quality control product …; test: capture ELISA, antibody 12.346 ng/ml, cTnI 0.15 ug/ml
Method: as §2

[6] = molecular target: T1, cTnI quality control product …; test: capture ELISA, antibody 37.037 ng/ml, cTnI 0.15 ug/ml
Method: as §2

[7] = molecular target: T1, cTnI quality control product …; test: capture ELISA, antibody 111.111 ng/ml, cTnI 0.15 ug/ml
Method: as §2

[8] = molecular target: T1, cTnI quality control product …; test: capture ELISA, antibody 333.333 ng/ml, cTnI 0.15 ug/ml
Method: as §2

[9] = molecular target: T1, cTnI quality control product …; test: capture ELISA, antibody 1000.000 ng/ml, cTnI 0.15 ug/ml
Method: as §2

[10] = molecular target: T1, cTnI quality control product …; test: capture ELISA, antibody 0.000 ng/ml (blank), cTnI 0.15 ug/ml
Method: as §2

Binder | Kd [1] [nM] | koff [1] [s⁻¹] | kon [1] [M⁻¹ s⁻¹] | Kd [2] [nM] | koff [2] [s⁻¹] | kon [2] [M⁻¹ s⁻¹] | OD 450 nm [3] [OD] | OD 450 nm [4] [OD] | OD 450 nm [5] [OD] | OD 450 nm [6] [OD] | OD 450 nm [7] [OD] | OD 450 nm [8] [OD] | OD 450 nm [9] [OD] | OD 450 nm [10] [OD]
B1 | 12.9 | 0.000368 | 28600 | 12.9 | 0.000368 | 28600 | 0.174 | 0.475 | 0.947 | 1.7 | 1.88 | 2.01 | 2.1 | 0.144
B2 | 9.96 | 0.000263 | 26400 | 9.96 | 0.000263 | 26400 | 1.03 | 1.97 | 2.34 | 2.36 | 2.4 | 2.4 | 2.34 | 0.193
B3 | 15.6 | 0.000434 | 27800 | – | – | – | 0.528 | 1.15 | 1.61 | 2.13 | 2.17 | 2.3 | 2.33 | 0.224
B4 | 17.8 | 0.000481 | 27000 | – | – | – | 0.367 | 0.978 | 1.41 | 2 | 2 | 2.11 | 2.21 | 0.204
B5 | 978000 | 0.687 | 702 | – | – | – | – | – | – | – | 0.247 | 0.514 | 1.12 | –
